In the data set the target is T1, GST-TBX3(1-342) TBX3dm (human, UniProt O15119 1-342, G129A;R130S).
T1 sequence: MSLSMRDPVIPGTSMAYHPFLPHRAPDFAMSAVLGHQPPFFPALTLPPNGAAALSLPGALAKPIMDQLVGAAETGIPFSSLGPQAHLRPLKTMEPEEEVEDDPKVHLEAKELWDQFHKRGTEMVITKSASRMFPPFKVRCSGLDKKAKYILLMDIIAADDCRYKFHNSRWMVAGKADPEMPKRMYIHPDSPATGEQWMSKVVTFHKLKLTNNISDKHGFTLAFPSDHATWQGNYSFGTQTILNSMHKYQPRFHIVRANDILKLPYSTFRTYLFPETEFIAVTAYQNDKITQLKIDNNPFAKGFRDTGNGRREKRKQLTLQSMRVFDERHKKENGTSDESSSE
The experiment in a line: EMSA; 20 mM HEPES (pH not given), 100 mM KCl, 1 mM DTT, 0.25 mM EDTA, 0.01% NP-40, 1 mM MgCl2, 8% glycerol, 100 ug/ml BSA, 1 mg/ml poly(dI-dC), 15 C, 1 h; 6% gel, 1x. Particulars: protein: recombinant; tags: N-terminal GST (pGEX-2TK); label: 5' digoxigenin; blunt; self-complementary palindrome.

B1: palindromic Brachyury/T-box consensus oligonucleotide (24 bp) (dsDNA)
DNA 1: AATTTCACACCTAGGTGTGAAATT
DNA 2: AATTTCACACCTAGGTGTGAAATT
For the molecule B1, the binding result is recorded as “no binding”.

Source of the values: paper PMC4625211, “Putative Breast Cancer Driver Mutations in TBX3 Cause Impaired Transcriptional Repression”.
